Assay [1] concerns the target standard crude extract of bacteriocin from the culture supernatant of S. thermophilus CNCM I-1351.
The subject of assay [2] is S. thermophilus strain Sfi3 (typical indicator). As to the kind of experiment: Agar well test, antibacterial activity in arbitrary units. It is filed as cell-based, Streptococcus thermophilus. The note with it: Pep RPC fractions 15 and 21. On the procedure: In order to do this, 35 ml of M 17 medium are poured into a Petri dish and 1% sucrose and 1.5% agar are added thereto.
5 ml of M 17 medium to which 1% sucrose and 0.75% agar are added are inoculated with 5 μl of a culture, prepared during the previous night, of a strain of S. thermophilus which is typically sensitive to the present bacteriocin (typical indicator), in this case the strain Sfi3 for example.
The 5 ml are poured over the 35 ml and left to dry for 15 min under a laminar flow. Holes of 5 mm in diameter are punched in the culture medium.
The test samples are poured into the holes, in an amount of 70 μl per hole. The incubation is carried out for 6 h under anaerobic conditions at 42° C. During this incubation, the typical indicator strain has grown and inhibition halos are visible.

The molecule Catalase (SIGMA C-10) (enzyme) registered an Inactivation (mm): diameter of the inhibition halo in the agar well test after incubation with the enzyme in assay [1] of 14 mm.
The same measure, in the same setting: with Ficin (SIGMA P-3266) (enzyme) the figure was 0 mm; with “Lipase (SIGMA L-0382) + protease inhibitors (enzyme)”, 14 mm; with Nagarse (SIGMA P-4789) (enzyme), 0 mm.
In turn, Pepsin (SIGMA P-700) (enzyme) registered an Inactivation (mm): diameter of the inhibition halo in the agar well test after incubation with the enzyme in assay [1] of 0 mm.
Still for that read-out and setting: the same measure for Pronase E (SIGMA P-8038) (enzyme): 0 mm.
The same measure, in the same setting: the same measure for “Proteinase K (MERCK 1000 144) (from UniProt P06873) (enzyme)”: 0 mm; for Trypsin (SIGMA T-8128) (enzyme): 0 mm.
“thermophilin 2: second bacteriocin from S. thermophilus CNCM I-1351, sequence SEQ ID NO: 2, predominant in fraction 21 (QINWGSVVGHCIGGAIIGGAFSGGAAAGVGCLVGSGKAIINGL)”: the “antibacterial activity of purified peptide fractions” value in assay [2] is on record as “antibacterial activity”.
For the molecule α-amylase (SIGMA λ-0521) (enzyme), the Inactivation (mm): diameter of the inhibition halo in the agar well test after incubation with the enzyme in assay [1] amounted to 14 mm.
The same measure, in the same setting: the same measure for α-chymotrypsin (SIGMA C-7762) (enzyme): 0 mm.

B1: thermophilin 1: first bacteriocin from S. thermophilus CNCM I-1351, sequence SEQ ID NO: 1, found in fraction 15 (protein)
chain: YSGKDCLKDMGGYALAGAGSGALWGAPAGGVGALPGAFVGAHVGAIAGGFACMGGMIGNKFN
As for B1, the “antibacterial activity of purified peptide fractions” value in assay [2] is on record as “antibacterial activity”.

Source of the values: US5683890A, “Bacteriocins from Streptococcus thermophilus” (Nestec S.A., priority 1993, dated 1997).
